Test results reported in article PMC3467265.

Molecular target: Cryptosporidium parvum pyruvate kinase (Cryptosporidium parvum)
Assay: SEC; analytical Superdex 200 10/30, partially purified CpPyK, elution compared with catalase (Mr 232 kDa) run separately; fractions checked by SDS-PAGE

Cryptosporidium parvum pyruvate kinase (enzyme)
stoichiometry N: 4
